Data on 2 molecules can be found in patent US8003599B2, “Inhibitors of L1 and ADAM10 for the treatment of carcinomas” (Deutsches Krebsforschungszentrum, priority 2004, dated 2011).

This assay relates to HEK293 cells. In words: Haptotactic cell migration assay in Transwell chambers, HEK293 cells. It is filed as cell-based, human. The procedure: (C) Inhibition of haptotactic cell migration in the absence or presence of the indicated mAbs to integrins at a final concentration of 10 μg/ml. FN at 10 μg/ml or BSA for control were coated onto the backside of Transwell chambers. Cells were seeded into the top chamber and allowed to transmigrate for 16 hr at 37° C. The antibody was present during the assay time. Each determination was done in quadruplicate and transmigrated cells were stained from the back of the filter. The dye was eluted from the filter and measured at 595 nm. The amount of dye is proportional to the number of transmigrated cells. Values for the migration on BSA were below 0.25 O.D. units for each cell type.
The haptotactic cell migration assay on fibronectin, laminin or BSA was performed in Transwell chambers (Costar, 6.5 mm diameter, 5 um pore size) and was described in detail elsewhere (Mechtersheimer et al., supra). Transmigrated cells were quantified by staining of the transwell membranes with cristalviolet solution as described (Mechtersheimer at al., supra). The eluted dye was measured at 595 nm in an ELISA reader.

B1: soluble L1: affinity purified soluble L1 from ascites fluid of ovarian carcinoma patients, 150 kDa and 200 kDa (protein)
chain: IQIPEEYEGHHVMEPPVITEQSPRRLVVFPTDDISLKCEASGKPEVQFRWTRDGVHFKPKEELGVTVYQSPHSGSFTITGNNSNFAQRFQGIYRCFASNKLGTAMSHEIRLMAEGAPKWPKETVKPVEVEEGESVVLPCNPPPSAEPLRIYWMNSKILHIKQDERVTMGQNGNLYFANVLTSDNHSDYICHAHFPGTRTIIQKEPIDLRVKATNSMIDRKPRLLFPTNSSSHLVALQGQPLVLECIAEGFPTPTIKWLRPSGPMPADRVTYQNHNKTLQLLKVGEEDDGEYRCLAENSLGSARHAYYVTVEAAPYWLHKPQSHLYGPGETARLDCQVQGRPQPEVTWRINGIPVEELAKDQKYRIQRGALILSNVQPSDTMVTQCEARNRHGLLLANAYIYVVQLPAKILTADNQTYMAVQGSTAYLLCKAFGAPVPSVQWLDEDGTTVLQDERFFPYANGTLGIRDLQANDTGRYFCLAANDQNNVTIMANLKVKDATQITQGPRSTIEKKGSRVTFTCQASFDPSLQPSITWRGDGRDLQELGDSDKYFIEDGRLVIHSLDYSDQGNYSCVASTELDVVESRAQLLVVGSPGPVPRLVLSDLHLLTQSQVRVSWSPAEDHNAPIEKYDIEFEDKEMAPEKWYSLGKVPGNQTSTTLKLSPYVHYTFRVTAINKYGPGEPSPVSETVVTPEAAPEKNPVDVKGEGNETTNMVITWKPLRWMDWNAPQVQYRVQWRPQGTRGPWQEQIVSDPFLVVSNTSTFVPYEIKVQAVNSQGKGPEPQVTIGYSGEDYPQAIPELEGIEILNSSAVLVKWRPVDLAQVKGHLRGYNVTYWREGSQRKHSKRHIHKDHVVVPANTTSVILSGLRPYSSYHLEVQAFNGRGSGPASEFTFSTPEGVPGHPEALHLECQSNTSLLLRWQPPLSHNGVLTGYVLSYHPLDEGGKGQLSFNLRDPELRTHNLTDLSPHLRYRFQLQATTKEGPGEAIVREGGTMALSGISDFGNISATAGENYSVVSWVPKEGQCNFRFHILFKALGEEKGGASLSPQYVSYNQSSYTQWDLQPDTDYEIHLFKERMFRHQMAVKTNGTGRVRLPPAGFATE
In the case of B1, where the note is “fibronectin as substrate (FIG. 4B)”, the “induction of cell migration by ascites derived soluble L1” value is recorded as “potent dose-dependent inducer of cell migration”.

B2: soluble L1 released from HEK293-hL1mutSH3 cells: supernatant collected from HEK293-hL1mutSH3 cells, concentrated tenfold (protein, UniProt P32004 20-1120, looked up)
extracellular domain: IQIPEEYEGHHVMEPPVITEQSPRRLVVFPTDDISLKCEASGKPEVQFRWTRDGVHFKPKEELGVTVYQSPHSGSFTITGNNSNFAQRFQGIYRCFASNKLGTAMSHEIRLMAEGAPKWPKETVKPVEVEEGESVVLPCNPPPSAEPLRIYWMNSKILHIKQDERVTMGQNGNLYFANVLTSDNHSDYICHAHFPGTRTIIQKEPIDLRVKATNSMIDRKPRLLFPTNSSSHLVALQGQPLVLECIAEGFPTPTIKWLRPSGPMPADRVTYQNHNKTLQLLKVGEEDDGEYRCLAENSLGSARHAYYVTVEAAPYWLHKPQSHLYGPGETARLDCQVQGRPQPEVTWRINGIPVEELAKDQKYRIQRGALILSNVQPSDTMVTQCEARNRHGLLLANAYIYVVQLPAKILTADNQTYMAVQGSTAYLLCKAFGAPVPSVQWLDEDGTTVLQDERFFPYANGTLGIRDLQANDTGRYFCLAANDQNNVTIMANLKVKDATQITQGPRSTIEKKGSRVTFTCQASFDPSLQPSITWRGDGRDLQELGDSDKYFIEDGRLVIHSLDYSDQGNYSCVASTELDVVESRAQLLVVGSPGPVPRLVLSDLHLLTQSQVRVSWSPAEDHNAPIEKYDIEFEDKEMAPEKWYSLGKVPGNQTSTTLKLSPYVHYTFRVTAINKYGPGEPSPVSETVVTPEAAPEKNPVDVKGEGNETTNMVITWKPLRWMDWNAPQVQYRVQWRPQGTRGPWQEQIVSDPFLVVSNTSTFVPYEIKVQAVNSQGKGPEPQVTIGYSGEDYPQAIPELEGIEILNSSAVLVKWRPVDLAQVKGHLRGYNVTYWREGSQRKHSKRHIHKDHVVVPANTTSVILSGLRPYSSYHLEVQAFNGRGSGPASEFTFSTPEGVPGHPEALHLECQSNTSLLLRWQPPLSHNGVLTGYVLSYHPLDEGGKGQLSFNLRDPELRTHNLTDLSPHLRYRFQLQATTKEGPGEAIVREGGTMALSGISDFGNISATAGENYSVVSWVPKEGQCNFRFHILFKALGEEKGGASLSPQYVSYNQSSYTQWDLQPDTDYEIHLFKERMFRHQMAVKTNGTGRVRLPPAGFATE
modifications: extracellular domain from SH3-motif mutant L1
notes: supernatant collected from HEK293-hL1mutSH3 cells, concentrated tenfold
Take B2: the “induction of HEK293 migration by L1mutSH3-HEK293 supernatant” value (conditioned medium concentrated tenfold) is reported as “able to induce migration”.
